These results are taken from US20230012273A1 (Boehringer Ingelheim, published 2023).

What all share (assay): SPR, Ab captured, ECD-His analyte
(In general: SPR reads the build-up and loss of mass on a sensor chip optically.)

Assay [1] has as its target T1, human SIRPβL/SIRPβ1v3 extracellular domain + His-tag (NP_001129316.1) (human, UniProt Q5TFQ8 30-371).
T1 construct: also called hSIRPβ1v3; HuSIRPβ1v3
As to the method: (§1) The binding affinity of anti-SIRPα antibodies to the various SIRPα analytes is determined by surface plasmon resonance (SPR) using a ProteOn XPR36 (Bio-Rad). The running buffer for this experiment and all dilutions (except where stated) are done in 1×HBS-EP+. […] The sensorchip is deactivated with 1M ethanolamine HCl for 420 sec at a flowrate of 10 μl/min.
(§2) The analyte is injected over the captured antibody for 300 sec at a flowrate of 30 μl/min. The dissociation is done for 600 sec. Two-fold serial dilutions of each SIRP protein (Extracellular Domain+His-Tag) are injected as analyte with the highest concentrations indicated in table 36 below.

Assay [2] concerns the target T2, human SIRPγ extracellular domain + His-tag (NP_061026.2) (human, UniProt Q9P1W8 29-360).
T2 construct: also called hSIRPγ; HuSIRPγ
The protocol:
as §1, §2

For assay [3], the target named is T3, human SIRPβ1 extracellular domain + His-tag (NP_006056.2) (human, UniProt O00241 30-371).
T3 construct: also called hSIRPβ1; HuSIRPβ1
T3 sequence (O00241 other isoform, or with tags, fused parts or gaps): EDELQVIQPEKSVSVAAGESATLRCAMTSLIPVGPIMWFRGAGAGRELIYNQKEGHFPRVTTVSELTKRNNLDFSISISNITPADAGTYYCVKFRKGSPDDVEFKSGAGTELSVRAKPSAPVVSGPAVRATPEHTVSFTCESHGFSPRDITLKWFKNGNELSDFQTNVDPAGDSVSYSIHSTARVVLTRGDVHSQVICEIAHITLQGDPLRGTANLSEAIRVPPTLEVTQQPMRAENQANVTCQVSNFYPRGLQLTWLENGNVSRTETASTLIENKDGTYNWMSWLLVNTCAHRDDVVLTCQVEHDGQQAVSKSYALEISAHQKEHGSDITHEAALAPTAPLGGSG
As to the method:
as §1, §2

In assay [4] the target is T4, cynomolgus SIRPβ1v3 extracellular domain + His-tag (XP_005568593) (cynomolgus monkey).
T4 construct: also called Cyno SIRPβ1v3; cynoSIRPβ1v3
T4 chain: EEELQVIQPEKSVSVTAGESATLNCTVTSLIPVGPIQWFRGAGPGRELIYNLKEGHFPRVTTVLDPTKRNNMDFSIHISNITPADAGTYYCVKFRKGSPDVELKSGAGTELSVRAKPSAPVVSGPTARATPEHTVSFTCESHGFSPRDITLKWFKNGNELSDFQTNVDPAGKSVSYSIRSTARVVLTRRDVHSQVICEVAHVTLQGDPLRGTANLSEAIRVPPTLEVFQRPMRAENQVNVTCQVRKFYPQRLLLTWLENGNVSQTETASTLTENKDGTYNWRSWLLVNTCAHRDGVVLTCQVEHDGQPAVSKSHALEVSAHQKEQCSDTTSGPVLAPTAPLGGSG
The protocol:
as §1, §2

Assay [5] concerns the target T5, cynomolgus SIRPα extracellular domain + His-tag (XP_015313155) (cynomolgus monkey).
T5 construct: also called CySIRPα XP_015313155; cynoSIRPα
T5 chain: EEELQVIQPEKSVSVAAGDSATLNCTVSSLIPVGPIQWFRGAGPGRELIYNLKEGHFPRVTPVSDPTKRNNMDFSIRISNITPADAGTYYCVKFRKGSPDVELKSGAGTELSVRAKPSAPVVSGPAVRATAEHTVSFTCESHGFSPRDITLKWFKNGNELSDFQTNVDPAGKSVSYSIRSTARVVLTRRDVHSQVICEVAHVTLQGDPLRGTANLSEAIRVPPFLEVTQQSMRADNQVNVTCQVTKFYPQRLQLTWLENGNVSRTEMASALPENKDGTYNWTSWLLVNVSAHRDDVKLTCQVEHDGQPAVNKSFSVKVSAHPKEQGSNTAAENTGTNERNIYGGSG
As to the method:
as §1, §2

Assay [6] has as its target T6, cynomolgus SIRPα extracellular domain + His-tag (EGM_02252) (cynomolgus monkey).
T6 construct: also called CySIRPα EGM_02252; cynoSIRPα
T6 chain: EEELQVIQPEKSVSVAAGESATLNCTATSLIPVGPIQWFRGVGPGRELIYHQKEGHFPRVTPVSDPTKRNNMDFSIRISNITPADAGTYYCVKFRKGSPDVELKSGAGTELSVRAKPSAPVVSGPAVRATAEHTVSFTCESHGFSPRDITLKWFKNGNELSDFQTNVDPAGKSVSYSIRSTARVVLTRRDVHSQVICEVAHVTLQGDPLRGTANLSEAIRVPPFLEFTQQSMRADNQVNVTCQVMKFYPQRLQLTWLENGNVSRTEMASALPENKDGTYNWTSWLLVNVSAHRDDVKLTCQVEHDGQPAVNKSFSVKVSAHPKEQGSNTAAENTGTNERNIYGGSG
The protocol: as §1, §2

For assay [7], the target named is T7, cynomolgus SIRPγ extracellular domain + His-tag (XP_005568591) (cynomolgus monkey, UniProt Q9P1W8 29-359 (human entry)).
T7 construct: also called Cyno SIRPγ; cynoSIRPγ
T7 chain: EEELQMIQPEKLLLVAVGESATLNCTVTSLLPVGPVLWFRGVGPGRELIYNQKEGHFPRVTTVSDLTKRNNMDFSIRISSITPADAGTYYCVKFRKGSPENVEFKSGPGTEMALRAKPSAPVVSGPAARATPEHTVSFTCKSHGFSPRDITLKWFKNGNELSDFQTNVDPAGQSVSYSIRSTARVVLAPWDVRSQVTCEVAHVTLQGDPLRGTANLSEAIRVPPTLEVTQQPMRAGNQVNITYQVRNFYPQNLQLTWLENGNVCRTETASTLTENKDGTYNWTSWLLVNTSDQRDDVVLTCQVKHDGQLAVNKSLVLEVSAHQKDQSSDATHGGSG
The protocol:
as §1, §2

For assay [8], the target named is T8, cynomolgus SIRPβ1 extracellular domain + His-tag (XP_005568598) (cynomolgus monkey).
T8 construct: also called Cyno SIRPβ1; cynoSIRPβ1
T8 chain: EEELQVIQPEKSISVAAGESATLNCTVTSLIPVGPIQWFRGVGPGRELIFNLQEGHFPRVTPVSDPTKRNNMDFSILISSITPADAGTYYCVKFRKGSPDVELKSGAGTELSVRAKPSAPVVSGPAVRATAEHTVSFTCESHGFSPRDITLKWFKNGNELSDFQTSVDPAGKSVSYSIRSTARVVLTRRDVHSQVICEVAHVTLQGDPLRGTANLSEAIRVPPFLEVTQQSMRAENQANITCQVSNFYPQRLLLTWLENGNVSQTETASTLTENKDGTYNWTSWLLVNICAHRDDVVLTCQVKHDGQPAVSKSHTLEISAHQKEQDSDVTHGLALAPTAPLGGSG
The protocol:
as §1, §2

T1 sequence (Q5TFQ8 other isoform, or with tags, fused parts or gaps): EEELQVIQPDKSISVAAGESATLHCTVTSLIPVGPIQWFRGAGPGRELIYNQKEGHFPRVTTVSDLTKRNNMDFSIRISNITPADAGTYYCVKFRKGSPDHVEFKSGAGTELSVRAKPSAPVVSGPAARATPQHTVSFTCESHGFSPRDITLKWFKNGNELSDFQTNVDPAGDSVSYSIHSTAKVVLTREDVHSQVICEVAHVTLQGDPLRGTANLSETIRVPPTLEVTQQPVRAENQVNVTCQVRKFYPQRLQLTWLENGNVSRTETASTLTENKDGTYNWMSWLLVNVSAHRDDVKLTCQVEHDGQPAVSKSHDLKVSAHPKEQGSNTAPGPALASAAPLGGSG
T2 sequence (Q9P1W8 29-360): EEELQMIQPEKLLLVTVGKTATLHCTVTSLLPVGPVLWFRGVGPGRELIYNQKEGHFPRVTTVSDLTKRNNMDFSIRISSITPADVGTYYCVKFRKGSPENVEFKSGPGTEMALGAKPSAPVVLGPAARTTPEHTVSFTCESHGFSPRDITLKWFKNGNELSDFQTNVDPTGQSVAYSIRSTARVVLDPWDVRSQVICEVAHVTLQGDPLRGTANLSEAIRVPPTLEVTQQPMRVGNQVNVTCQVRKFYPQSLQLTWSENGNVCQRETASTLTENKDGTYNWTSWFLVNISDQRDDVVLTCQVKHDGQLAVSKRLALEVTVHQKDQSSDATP

B1: Antibody A1 (antibody, human IgG1, kappa, L234A L235A, V domains shown)
VH: EVQLVESGGGLVQPGGSLRLSCAASGFTLSSYDMHWVRQAPGKGLEWVSAIGTAGDTYYTGSVKGRFTISRENAKNSLYLQMNSLRADDTAVYYCVRGGVWDDAFDIWGQGTMVTVSS
VL: DIQMTQSPSSLSASVGDRVTITCRASQGINNYAAWFQQKPGKAPKSLIYTASSLHSGVPSKFSGSGSGTDFTLTISSLQPEDFATYYCQQYVSYPYTFGQGTKLEIKR
notes: also called Antibody Al
In general, Kd refers to the concentration at which binding is half-saturated. As to B1, the binding result is reported as “no binding (tested: 100 nM)” in assay [1]; “no binding (tested: 1000 nM)” in assay [2]; “no binding (tested: 1000 nM)” in assay [3]; “no binding (tested: 1000 nM)” in assay [7]; “no binding (tested: 1000 nM)” in assay [8]. Moreover, the Kd in assay [4] amounted to 557 nM; in assay [5], 369 nM; in assay [6] it was 543 nM.

B2: Antibody A6 (antibody, human IgG1, kappa, L234A L235A, V domains shown)
VH: EVQLVESGGGLVQPGGSLRLSCAASGFTLSSYDMHWVRQAPGKGLEWVSAIGTAGDTYYTGSVKGRFTISRENAKNSLYLQMNSLRAEDTAVYYCVRGGVWDDAFDIWGQGTMVTVSS
VL: DIQMTQSPSSLSASVGDRVTITCRASQGINNYAAWFQQKPGKAPKSLIYTASSLHSGVPSKFSGSGSGTDFTLTISSLQPEDFATYYCQQYVSYPYTFGQGTKLEIKR
For the molecule B2, the binding result in assay [1] is reported as “no binding (tested: 100 nM)”; in assay [2], “no binding (tested: 1000 nM)”; in assay [7], “no binding (tested: 1000 nM)”; in assay [8], “no binding (tested: 1000 nM)”. The Kd is 65.1 nM in assay [3], 469 nM in assay [4], 366 nM in assay [5] and 538 nM in assay [6].

B3: Antibody A3 (antibody, human IgG1, kappa, L234A L235A, V domains shown)
VH: EVQLVESGGGLVQPGGSLRLSCAASGFTLSSYDMHWVRQATGKGLEWVSAIGTAGDTYYTGSVKGRFTISRENAKNSLYLQMNSLRASDTAVYYCVRGGVWDDAFDIWGQGTMVTVSS
VL: DIQMTQSPSSLSASVGDRVTITCRASQGINNYAAWFQQKPGKAPKSLIYTASSLHSGVPSKFSGSGSGTDFTLTISSLQPEDFATYYCQQYVSYPYTFGQGTKLEIKR
Consider B3, for which the binding result is “no binding (tested: 100 nM)” in assay [1], “no binding (tested: 1000 nM)” in assay [2], “no binding (tested: 1000 nM)” in assay [7] and “no binding (tested: 1000 nM)” in assay [8]. Besides, the Kd in assay [3] came to 70.3 nM; in assay [4] it was 564 nM; in assay [5], 438 nM; in assay [6] it was 571 nM.

B4: Antibody A7 (antibody, human IgG1, kappa, L234A L235A, V domains shown)
VH: EVQLVESGGGLVQPGGSLRLSCAASGFTLSSYDMHWVRQATGKGLEWVSAIGTAGDTYYTGSVKGRFTISRENAKNSLYLQMNSLRAGDTAVYYCVRGGVWDDAFDIWGQGTMVTVSS
VL: DIQMTQSPSSLSASVGDRVTITCRASQGINNYAAWFQQKPGKAPKSLIYTASSLHSGVPSKFSGSGSGTDFTLTISSLQPEDFATYYCQQYVSYPYTFGQGTKLEIKR
On to B4, for which the binding result was “no binding (tested: 100 nM)” in assay [1], “no binding (tested: 1000 nM)” in assay [2], “no binding (tested: 1000 nM)” in assay [7] and “no binding (tested: 1000 nM)” in assay [8]. Besides, the Kd turned out to be 72.2 nM in assay [3], 494 nM in assay [4], 389 nM in assay [5] and 609 nM in assay [6].

B5: Antibody A8 (antibody, human IgG1, kappa, L234A L235A, V domains shown)
VH: EVQLVESGGGLVQPGGSLRLSCAASGFTLSSYDMHWVRQAPGKGLEWVSAIGTAGDTYYTGSVKGRFTISRENAKNSLYLQMNSLRAGDTAVYYCVRGGVWDDAFDIWGQGTMVTVSS
VL: DIQMTQSPSSLSASVGDRVTITCRASQGINNYAAWFQQKPGKAPKSLIYTASSLHSGVPSKFSGSGSGTDFTLTISSLQPEDFATYYCQQYVSYPYTFGQGTKLEIKR
B5: the binding result in assay [1] is on record as “no binding (tested: 100 nM)”; in assay [2] it was “no binding (tested: 1000 nM)”; in assay [7], “no binding (tested: 1000 nM)”; in assay [8], “no binding (tested: 1000 nM)”. The Kd in assay [3] amounted to 69.6 nM; in assay [4], 449 nM; in assay [5], 350 nM; in assay [6], 535 nM.

B6: Antibody A9 (antibody, human IgG1, kappa, L234A L235A, V domains shown)
VH: EVQLVESGGGLVQPGGSLRLSCAASGFTLSSYDMHWVRQAPGKGLEWVSAIGTAGDTYYTGSVKGRFTISRENAKNSLYLQMNSLRADDTAVYYCVRGGVWDDAFDIWGQGTMVTVSS
VL: DIQMTQSPSSLSASVGDRVTITCRASQDINNYLAWFQQKPGKAPKSLIYTASSLHSGVPSKFSGSGSGTDFTLTISSLQPEDFATYYCQQYVSYPYTFGQGTKLEIKR
As for B6, the binding result in assay [1] is “no binding (tested: 100 nM)”; in assay [2] it was “no binding (tested: 1000 nM)”; in assay [7], “no binding (tested: 1000 nM)”; in assay [8], “no binding (tested: 1000 nM)”. Moreover, the Kd was 58.8 nM in assay [3], 257 nM in assay [4], 156 nM in assay [5] and 227 nM in assay [6].

B7: Antibody A2 (antibody, human IgG1, kappa, L234A L235A, V domains shown)
VH: EVQLVESGGGLVQPGGSLRLSCAASGFTLSSYDMHWVRQATGKGLEWVSAIGTAGDTYYTGSVKGRFTISRENAKNSLYLQMNSLRAADTAVYYCVRGGVWDDAFDIWGQGTMVTVSS
VL: DIQMTQSPSSLSASVGDRVTITCRASQGINNYAAWFQQKPGKAPKSLIYTASSLHSGVPSKFSGSGSGTDFTLTISSLQPEDFATYYCQQYVSYPYTFGQGTKLEIKR
With B7, the binding result in assay [1] is “no binding (tested: 100 nM)”; in assay [2] it was “no binding (tested: 1000 nM)”; in assay [7] it was “no binding (tested: 1000 nM)”; in assay [8], “no binding (tested: 1000 nM)”. The Kd is 77.5 nM in assay [3], 552 nM in assay [4], 424 nM in assay [5] and 584 nM in assay [6].
